Measured values as given in article PMC10273338, “HspB8 interacts with BAG3 in a “native‐like” conformation forming a complex that displays chaperone‐like activity” (Protein Science : A Publication of the Protein Society, 2023).

B1: Josephin domain of ataxin-3 (domain or fragment, UniProt P54252 1-180, looked up)
chain: MESIFHEKQEGSLCAQHCLNNLLQGEYFSPVELSSIAHQLDEEERMRMAEGGVTSEDYRTFLQQPSGNMDDSGFFSIQVISNALKVWGLELILFNSPEYQRLRIDPINERSFICNYKEHWFTVRKLGKQWFNLNSLLTGPELISDTYLALFLAQLQQEGYSIFVVKGDLPDCEADQLLQM
notes: cloned in pET21-a; likely residues 1-182 of human ataxin-3 (surmised). pET21-a may add a C-terminal His6 tag; also called JD; source: E. coli BL21 Tuner (DE3) pLacI, purified as previously described (Bonanomi et al., 2015)
B2: HspB8 (natural protein, UniProt Q9UJY1 1-196, looked up)
chain: MADGQMPFSCHYPSRLRRDPFRDSPLSSRLLDDGFGMDPFPDDLTASWPDWALPRLSSAWPGTLRSGMVPRGPTATARFGVPAEGRTPPPFPGEPWKVCVNVHSFKPEELMVKTKDGYVEVSGKHEEKQQEGGIVSKNFTKKIQLPAEVDPVTVFASLSPEGLLIIEAPQVPPYSTFGESSFNNELPQDSQEVTCT
notes: HspB8, small heat shock protein; gene in pGEX-6P-1, provided by Serena Carra; source: E. coli BL21-CodonPlus(DE3)-RIL, purified (Glutathione Sepharose, PreScission cleavage on the resin, Superose 12 SEC); not shown: GST, N-terminal, cleaved
B3: HspB8-BAG3 complex (complex)
chain 1: B2 chain
chain 2: not shown

Columns and labels:
HspB8 = molecular target: B2; assay: SPR; BIACORE X100; JD amine-coupled to a CM5 chip (3000 RU); single cycle kinetics at 25°C, 10 uL/min, 10 mM HEPES pH 7.4, 150 mM NaCl, 3 mM EDTA, 0.005% P20; Langmuir 1:1 fit, complex assumed to bind JD 1:1; details: both partners purified
[1] = molecular target: T1, BAG3 (Bcl-2 associated athanogene protein 3) (human, UniProt O95817 1-575); assay: as above; details: both partners purified
T1 construct: BAG3, human; no removal of the tag is described; source: E. coli M15 (pREP4), purified (HisPur Cobalt resin, Superose 12 SEC)
T1 sequence (O95817 whole entry): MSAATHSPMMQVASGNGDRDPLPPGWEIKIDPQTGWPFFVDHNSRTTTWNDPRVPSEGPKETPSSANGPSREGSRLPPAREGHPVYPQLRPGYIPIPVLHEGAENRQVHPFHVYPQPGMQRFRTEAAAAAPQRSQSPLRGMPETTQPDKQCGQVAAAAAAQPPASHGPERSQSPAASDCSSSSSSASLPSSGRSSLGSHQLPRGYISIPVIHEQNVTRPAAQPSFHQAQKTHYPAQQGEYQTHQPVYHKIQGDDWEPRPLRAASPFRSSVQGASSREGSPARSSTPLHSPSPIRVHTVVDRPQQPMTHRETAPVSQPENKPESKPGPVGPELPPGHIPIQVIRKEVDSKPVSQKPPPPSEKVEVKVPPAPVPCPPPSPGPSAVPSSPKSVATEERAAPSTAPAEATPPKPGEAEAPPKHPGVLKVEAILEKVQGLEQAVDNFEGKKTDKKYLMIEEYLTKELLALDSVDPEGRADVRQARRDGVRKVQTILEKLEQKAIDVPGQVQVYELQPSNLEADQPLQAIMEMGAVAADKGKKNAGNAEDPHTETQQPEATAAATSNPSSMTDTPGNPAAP

HspB8-BAG3 complex = molecular target: B3; assay: as above; details: both partners purified
Sequence of HspB8-BAG3 complex (O95817 whole entry, one chain of several): as the sequence (O95817 whole entry) above

[2] = molecular target: B1; assay: cell-based or functional assay
[3] = molecular target: T1, BAG3 (Bcl-2 associated athanogene …); assay: SPR; BIACORE X; BAG3 amine-coupled to a CM5 chip (3400 RU); running buffer 10 mM HEPES pH 7.4, 150 mM NaCl, 3 mM EDTA, 0.005% P20; 10 uL/min; Langmuir 1:1 fit; details: both partners purified
[4] = molecular target: T1, BAG3 (Bcl-2 associated athanogene …); assay: SPR; BIACORE X; HspB8 amine-coupled to a CM5 chip (7400 RU); running buffer 10 mM HEPES pH 7.4, 150 mM NaCl, 3 mM EDTA, 0.005% P20; 10 uL/min; Langmuir 1:1 fit; details: both partners purified

Binder: B1
Ka (HspB8): 120000 M⁻¹
Kd (HspB8): 8100 nM
koff (HspB8): 0.0006 s⁻¹
kon (HspB8): 74 M⁻¹ s⁻¹
Ka [1]: 190000 M⁻¹
Kd [1]: 5400 nM
koff [1]: 0.0014 s⁻¹
kon [1]: 260 M⁻¹ s⁻¹
Ka (HspB8-BAG3 complex): 1.4e+07 M⁻¹
Kd (HspB8-BAG3 complex): 73 nM
koff (HspB8-BAG3 complex): 0.00024 s⁻¹
kon (HspB8-BAG3 complex): 3300 M⁻¹ s⁻¹

Binder: B2
inhibition of JD aggregation (ThT fluorescence, 10 uM JD at 37°C with HspB8 at different molar ratios; 20% at JD:HspB8 1:0.093, maximum at 4:1) [2]: 35%
Ka [3]: 2.2e+08 M⁻¹
Kd [3]: 4.5 nM
koff [3]: 0.00056 s⁻¹
kon [3]: 130000 M⁻¹ s⁻¹
Ka [4]: 4.2e+08 M⁻¹
Kd [4]: 2.4 nM
koff [4]: 0.00022 s⁻¹
kon [4]: 93000 M⁻¹ s⁻¹

Binder: B3
inhibition of JD aggregation (ThT fluorescence, 10 uM JD at 37°C with the HspB8-BAG3 complex at different ratios; maximum at JD:complex 1:0.5) [2]: 40%
